In doi:10.1101/2019.12.15.877159:
Each block holds one substance with its values, some of them ahead of it.

Tests used:
Assay in all cases: non-reducing SDS-PAGE and western blot
[1] = target: transmembrane peptide of sDscamα (Mesobuthus martensii)
[2] = target: transmembrane peptide of sDscamβ2 (Mesobuthus martensii)
[3] = target: transmembrane peptide of sDscamβ3 (Mesobuthus martensii)
[4] = target: transmembrane peptide of sDscamβ4 (Mesobuthus martensii)
[5] = target: transmembrane peptide of sDscamβ5 (Mesobuthus martensii)
[6] = target: transmembrane peptide of sDscamβ6 (Mesobuthus martensii)

- stoichiometry N [1]: 2
Substance: transmembrane peptide of sDscamα (domain or fragment)

- stoichiometry N [2]: 2
Substance: transmembrane peptide of sDscamβ2 (domain or fragment)

- stoichiometry N [3]: 2
Substance: transmembrane peptide of sDscamβ3 (domain or fragment)

- percent of dimers [4]: < 10%
- stoichiometry N [4]: 2
Substance: transmembrane peptide of sDscamβ4 (domain or fragment)

- percent of dimers [5]: < 10%
- stoichiometry N [5]: 2
Substance: transmembrane peptide of sDscamβ5 (domain or fragment)

- stoichiometry N [6]: 2
Substance: transmembrane peptide of sDscamβ6 (domain or fragment)
